# Changes are numbered by the printed parent chain.
# B1: E9 (Fab)
# light: DIQMTQSPSSLSASVGDRVTITCRASQSVSSAVAWYQQKPGKAPKLLIYSASSLYSGVPSRFSGSRSGTDFTLTISSLQPEDFATYYCQQSYVGGPFTFGQGTKVEIKRTVAAPSVFIFPPSDSQLKSGTASVVCLLNNFYPREAKVQWKVDNALQSGNSQESVTEQDSKDSTYSLSSTLTLSKADYEKHKVYACEVTHQGLSSPVTKSFNRGECGGS
# heavy: EVQLVESGGGLVQPGGSLRLSCAASGFNISYYSMHWVRQAPGKGLEWVASISSSYSSTYYADSVKGRFTISADTSKNTAYLQMNSLRAEDTAVYYCARGYWYVYVGWGAYYGPVGMDYWGQGTLVTVSSASTKGPSVFPLAPSSKSTSGGTAALGCLVKDYFPEPVTVSWNSGALTSGVHTFPAVLQSSGLYSLSSVVTVPSSSLGTQTYICNVNHKPSNTKVDKKVEPKSC
# notes: selection round 2; not the round 3 clone E9 (f29); also called Fzd7-R2-E9
# B2: G1 (Fab)
# light: B1 light with S91W, Y92G, V93Y, G95A, P96L, F97I
# heavy: EVQLVESGGGLVQPGGSLRLSCAASGFNISYSSIHWVRQAPGKGLEWVASIYPSPGYTSYADSVKGRFTISADTSKNTAYLQMNSLRAEDTAVYYCARHGWYGLDYWGQGTLVTVSSASTKGPSVFPLAPSSKSTSGGTAALGCLVKDYFPEPVTVSWNSGALTSGVHTFPAVLQSSGLYSLSSVVTVPSSSLGTQTYICNVNHKPSNTKVDKKVEPKSC
# notes: selection round 2; same four CDRs as Fzd7-R2-G12 (f18); also called Fzd7-R2-G1
# B3: D7 (Fab)
# light: B1 light with G94Y, G95Y, P96L, F97I
# heavy: EVQLVESGGGLVQPGGSLRLSCAASGFNISYYSMHWVRQAPGKGLEWVAYIYPYSSYTYYADSVKGRFTISADTSKNTAYLQMNSLRAEDTAVYYCARYHGFYGMDYWGQGTLVTVSSASTKGPSVFPLAPSSKSTSGGTAALGCLVKDYFPEPVTVSWNSGALTSGVHTFPAVLQSSGLYSLSSVVTVPSSSLGTQTYICNVNHKPSNTKVDKKVEPKSC
# notes: selection round 2; also called Fzd7-R2-D7
# B4: B10 (Fab)
# light: DIQMTQSPSSLSASVGDRVTITCRASQSVSSAVAWYQQKPGKAPKLLIYSASSLYSGVPSRFSGSRSGTDFTLTISSLQPEDFATYYCQQGSVWLFTFGQGTKVEIKRTVAAPSVFIFPPSDSQLKSGTASVVCLLNNFYPREAKVQWKVDNALQSGNSQESVTEQDSKDSTYSLSSTLTLSKADYEKHKVYACEVTHQGLSSPVTKSFNRGECGGS
# heavy: EVQLVESGGGLVQPGGSLRLSCAASGFNISSSSMHWVRQAPGKGLEWVASISSSSSYTYYADSVKGRFTISADTSKNTAYLQMNSLRAEDTAVYYCARYGSHWSPSYSGWYYYSYALDYWGQGTLVTVSSASTKGPSVFPLAPSSKSTSGGTAALGCLVKDYFPEPVTVSWNSGALTSGVHTFPAVLQSSGLYSLSSVVTVPSSSLGTQTYICNVNHKPSNTKVDKKVEPKSC
# notes: selection round 2; not the round 3 clone B10 (f30); also called Fzd7-R2-B10
# B5: E5 (Fab)
# light: B4 light with G91A, V93W, W94Y, L95P, F96I
# heavy: EVQLVESGGGLVQPGGSLRLSCAASGFNIYSSSMHWVRQAPGKGLEWVASIYSSYGYTSYADSVKGRFTISADTSKNTAYLQMNSLRAEDTAVYYCARPGYWGYYWGAYGMDYWGQGTLVTVSSASTKGPSVFPLAPSSKSTSGGTAALGCLVKDYFPEPVTVSWNSGALTSGVHTFPAVLQSSGLYSLSSVVTVPSSSLGTQTYICNVNHKPSNTKVDKKVEPKSC
# notes: selection round 2; also called Fzd7-R2-E5
# B6: G4 (Fab)
# light: B4 light with G91A, S92Y, V93A, W94Y, F96I
# heavy: EVQLVESGGGLVQPGGSLRLSCAASGFNISYSSMHWVRQAPGKGLEWVASISSSYGYTYYADSVKGRFTISADTSKNTAYLQMNSLRAEDTAVYYCARSGGHFYYWYVAAAMDYWGQGTLVTVSSASTKGPSVFPLAPSSKSTSGGTAALGCLVKDYFPEPVTVSWNSGALTSGVHTFPAVLQSSGLYSLSSVVTVPSSSLGTQTYICNVNHKPSNTKVDKKVEPKSC
# notes: selection round 2; same four CDRs as Fzd7-R2-B2 (f22); also called Fzd7-R2-G4
# B7: F12 (Fab)
# light: DIQMTQSPSSLSASVGDRVTITCRASQSVSSAVAWYQQKPGKAPKLLIYSASSLYSGVPSRFSGSRSGTDFTLTISSLQPEDFATYYCQQAYAPFTFGQGTKVEIKRTVAAPSVFIFPPSDSQLKSGTASVVCLLNNFYPREAKVQWKVDNALQSGNSQESVTEQDSKDSTYSLSSTLTLSKADYEKHKVYACEVTHQGLSSPVTKSFNRGECGGS
# heavy: EVQLVESGGGLVQPGGSLRLSCAASGFNISYSYMHWVRQAPGKGLEWVASIYSSYSYTSYADSVKGRFTISADTSKNTAYLQMNSLRAEDTAVYYCARSSAWFGHAGFGGAMDYWGQGTLVTVSSASTKGPSVFPLAPSSKSTSGGTAALGCLVKDYFPEPVTVSWNSGALTSGVHTFPAVLQSSGLYSLSSVVTVPSSSLGTQTYICNVNHKPSNTKVDKKVEPKSC
# notes: selection round 2; also called Fzd7-R2-F12
# B8: C10 (Fab)
# light: DIQMTQSPSSLSASVGDRVTITCRASQSVSSAVAWYQQKPGKAPKLLIYSASSLYSGVPSRFSGSRSGTDFTLTISSLQPEDFATYYCQQSAWWASLFTFGQGTKVEIKRTVAAPSVFIFPPSDSQLKSGTASVVCLLNNFYPREAKVQWKVDNALQSGNSQESVTEQDSKDSTYSLSSTLTLSKADYEKHKVYACEVTHQGLSSPVTKSFNRGECGGS
# heavy: EVQLVESGGGLVQPGGSLRLSCAASGFNISSYSIHWVRQAPGKGLEWVASIYPYSSYTYYADSVKGRFTISADTSKNTAYLQMNSLRAEDTAVYYCARYSGFAMDYWGQGTLVTVSSASTKGPSVFPLAPSSKSTSGGTAALGCLVKDYFPEPVTVSWNSGALTSGVHTFPAVLQSSGLYSLSSVVTVPSSSLGTQTYICNVNHKPSNTKVDKKVEPKSC
# notes: selection round 2; also called Fzd7-R2-C10
# B9: E11 (Fab)
# light: B8 light with S91Y, A92S, W93Y, W94G, A95Y, S96A
# heavy: EVQLVESGGGLVQPGGSLRLSCAASGFNLSSYYMHWVRQAPGKGLEWVASIYPYYSYTYYADSVKGRFTISADTSKNTAYLQMNSLRAEDTAVYYCARYWSGFDYWGQGTLVTVSSASTKGPSVFPLAPSSKSTSGGTAALGCLVKDYFPEPVTVSWNSGALTSGVHTFPAVLQSSGLYSLSSVVTVPSSSLGTQTYICNVNHKPSNTKVDKKVEPKSC
# notes: selection round 2; also called Fzd7-R2-E11
# B10: F9 (Fab)
# light: B8 light with S91W, A92Y, W93Y, W94G, A95W, S96H, F98I
# heavy: B2 heavy with P55Y, S59Y, H99Y, W101Y, Y102F, L104M
# notes: selection round 2; also called Fzd7-R2-F9
# Molecular target: T1, recombinant Frizzled receptor 7 (FZD7) cysteine-rich domain (CRD) fused to the Fc region of human IgG (human, UniProt O75084 33-185)
# Assay: ELISA, 1ug/ml (20nM) Fab
# Description: (§1) FIG. 2B is a table depicting the binding of purified Fabs to purified FZD7-Fc measured by ELISA. Fabs purified from 25 ml bacterial cultures were assayed for binding to FZD7-Fc fusion protein (R&D systems) and Fc protein. ELISA plates (384 well) were coated with 2 ug/ml of protein in PBS overnight at four degrees. Wells were blocked with 0.5% BSA/PBS for 1 hour at room temperature, washed three times with 0.05% Tween20/PBS (wash buffer), and then primary dilutions of Fabs in 0.5% BSA/0.05% Tween20/PBS (dilution buffer) were added at indicated concentrations. Fabs were incubated for 1 hour at room temperature, wells were washed six times, and anti-FLAG-HRP (Sigma) was added at 1:5000 in dilution buffer. Secondary antibody was incubated for 45 minutes at room temperature, and wells were washed six times and developed with TMB substrate with an acid stop. The absorbance at 450 nm was read. n.t.=not tested.
row,OD 450,Binder
1,3.15,B1
2,3.17,B2
3,3.22,B3
4,2.82,B4
5,3.17,B5
6,3.15,B6
7,1.05,B7
8,0.37,B8
9,3.24,B9
10,3.11,B10

# Molecular target: T2, Fc control protein
# T2 construct: also called Fc protein; control Fc protein
# Assay: ELISA, 1ug/ml (20nM) Fab
# Description: as §1
row,OD 450,Binder
1,0.05,B1
2,0.05,B2
3,0.07,B3
4,0.06,B4
5,0.07,B5
6,0.05,B6
7,0.08,B7
8,0.07,B8
9,0.05,B9
10,0.06,B10

# Molecular target: T1, recombinant Frizzled receptor 7 (FZD7) …
# Assay: ELISA, 10ug/ml (200nM) Fab
# Description: as §1
row,OD 450,Binder
1,3.22,B1
2,3.18,B2
3,3.18,B3
4,2.99,B4
5,3.17,B5
6,3.17,B6
7,3.11,B7
8,2.05,B8
9,3.22,B9
10,3.16,B10

# Molecular target: T2, Fc control protein
# Assay: ELISA, 10ug/ml (200nM) Fab
# Description: as §1
row,OD 450,Binder
1,0.07,B1
2,0.05,B2
3,0.07,B3
4,0.06,B4
5,0.06,B5
6,0.07,B6
7,0.06,B7
8,0.06,B8
9,0.06,B9
10,0.06,B10

# Molecular target: T3, FZD7 receptor expressed on cells (full-length) (UniProt O75084 33-574, limits assumed)
# T3 construct: whole, on cells; MDA MB 231 cells may carry other Frizzled receptors too; also called full-length FZD7 receptor; endogenous receptor on MDA MB 231 cells
# Assay: flow cytometry, 200 nM Fab, MDA MB 231
# Description: (§2) FIG. 3 is a table depicting the binding of the purified Fabs to cells expressing FZD7 (flow cytometry). Small scale Fabs were assayed for binding to full-length FZD7 receptor to an over-expression line in MDA MB 231 cells. In parallel, Fabs were assayed for binding to endogenous receptor expressed on the MDA MB 231 cells. Cells were harvested using an EDTA solution, blocked in 2% FBS/PBS (stain buffer), and stained with 200 nM Fab for 30 min on ice. Cells were washed two times with stain buffer and incubated with anti-F(ab′)₂-APC secondary antibody (Jackson Immuno) at 1:1000 for 15 minutes on ice. All antibodies were diluted in stain buffer. Cells were washed three times with stain buffer and then fixed with 1% paraformaldehye for analysis by flow cytometry. […] The percent of the cell population within the positive gates is indicated.
row,% population within the positive gate [%],Binder
1,99.4,B1
2,28.6,B2
3,1.7,B3
4,35,B4
5,6.3,B5
6,5.1,B6
7,1.4,B7
8,0.9,B8
9,99.2,B9
10,50.3,B10

# Molecular target: T3, FZD7 receptor expressed on cells …
# Assay: flow cytometry, 200 nM Fab, FZD7 over-expression line (MDA MB 231)
# Description: as §2
row,% population within the positive gate [%],Binder
1,90.7,B1
2,83.4,B2
3,75.7,B3
4,88.4,B4
5,86.2,B5
6,85.4,B6
7,59.9,B7
8,50.5,B8
9,94.2,B9
10,88.3,B10

# Source: patent US20160194394A1 (GOVERNING COUNCIL OF THE UNIVERSITY OF TORONTO, published 2016)
